Measured values: publication PMC3861647, “Characterization of Fibrinogen Binding by Glycoproteins Srr1 and Srr2 of Streptococcus agalactiae*” (The Journal of Biological Chemistry, 2013)

Columns and labels:
[1] = molecular target: T1, Srr2-BR (untagged recombinant binding region of Srr2) (Streptococcus agalactiae (strain COH1)); test: SPR; BIAcore T100; fibrinogen amine-coupled to a CM5 chip; Srr1-BR or Srr2-BR 1.25–160 μM flowed at 10 μl/min; KD from equilibrium responses; conditions: both partners purified
T1 construct: I took it to be this one; also called untagged Srr2-BR; recombinant Srr2; source: E. coli, purified (nickel-nitrilotriacetic acid or anti-FLAG M2-agarose)

[2] = molecular target: T2, Srr1-BR (untagged recombinant binding region of Srr1) (Streptococcus agalactiae (strain NCTC …)); test: as above; conditions: both partners purified
T2 construct: I took it to be this one; also called untagged Srr1-BR; recombinant Srr1; source: E. coli, purified (nickel-nitrilotriacetic acid or anti-FLAG M2-agarose)
T2 sequence (P02671 36-866): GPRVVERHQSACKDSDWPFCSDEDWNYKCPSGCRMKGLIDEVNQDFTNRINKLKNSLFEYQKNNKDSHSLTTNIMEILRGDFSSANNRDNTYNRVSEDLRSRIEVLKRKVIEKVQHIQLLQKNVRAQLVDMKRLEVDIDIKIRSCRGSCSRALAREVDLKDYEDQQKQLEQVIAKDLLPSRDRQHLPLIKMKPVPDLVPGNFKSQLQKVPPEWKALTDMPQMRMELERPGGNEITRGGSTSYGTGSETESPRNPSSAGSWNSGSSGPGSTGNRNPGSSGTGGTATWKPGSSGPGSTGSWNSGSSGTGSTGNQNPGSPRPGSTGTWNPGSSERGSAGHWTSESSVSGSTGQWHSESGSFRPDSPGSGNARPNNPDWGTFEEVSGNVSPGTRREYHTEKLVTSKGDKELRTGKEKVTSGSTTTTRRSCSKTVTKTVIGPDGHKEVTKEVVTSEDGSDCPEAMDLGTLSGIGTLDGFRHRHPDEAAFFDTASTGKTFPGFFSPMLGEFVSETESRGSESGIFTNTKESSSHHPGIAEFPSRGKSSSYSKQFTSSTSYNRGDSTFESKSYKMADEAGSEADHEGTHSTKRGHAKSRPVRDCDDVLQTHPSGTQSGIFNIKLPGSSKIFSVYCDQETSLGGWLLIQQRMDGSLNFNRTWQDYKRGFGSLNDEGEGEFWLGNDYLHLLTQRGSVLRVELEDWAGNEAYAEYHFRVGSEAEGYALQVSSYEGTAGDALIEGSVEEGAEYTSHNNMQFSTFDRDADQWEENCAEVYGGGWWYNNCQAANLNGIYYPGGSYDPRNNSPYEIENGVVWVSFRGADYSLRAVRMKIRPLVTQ

T1 sequence (P02671 36-866): as above

B1: purified human fibrinogen (complex)
chain 1: ADSGEGDFLAEGGGVRGPRVVERHQSACKDSDWPFCSDEDWNYKCPSGCRMKGLIDEVNQDFTNRINKLKNSLFEYQKNNKDSHSLTTNIMEILRGDFSSANNRDNTYNRVSEDLRSRIEVLKRKVIEKVQHIQLLQKNVRAQLVDMKRLEVDIDIKIRSCRGSCSRALAREVDLKDYEDQQKQLEQVIAKDLLPSRDRQHLPLIKMKPVPDLVPGNFKSQLQKVPPEWKALTDMPQMRMELERPGGNEITRGGSTSYGTGSETESPRNPSSAGSWNSGSSGPGSTGNRNPGSSGTGGTATWKPGSSGPGSTGSWNSGSSGTGSTGNQNPGSPRPGSTGTWNPGSSERGSAGHWTSESSVSGSTGQWHSESGSFRPDSPGSGNARPNNPDWGTFEEVSGNVSPGTRREYHTEKLVTSKGDKELRTGKEKVTSGSTTTTRRSCSKTVTKTVIGPDGHKEVTKEVVTSEDGSDCPEAMDLGTLSGIGTLDGFRHRHPDEAAFFDTASTGKTFPGFFSPMLGEFVSETESRGSESGIFTNTKESSSHHPGIAEFPSRGKSSSYSKQFTSSTSYNRGDSTFESKSYKMADEAGSEADHEGTHSTKRGHAKSRPV
chain 2: QGVNDNEEGFFSARGHRPLDKKREEAPSLRPAPPPISGGGYRARPAKAAATQKKVERKAPDAGGCLHADPDLGVLCPTGCQLQEALLQQERPIRNSVDELNNNVEAVSQTSSSSFQYMYLLKDLWQKRQKQVKDNENVVNEYSSELEKHQLYIDETVNSNIPTNLRVLRSILENLRSKIQKLESDVSAQMEYCRTPCTVSCNIPVVSGKECEEIIRKGGETSEMYLIQPDSSVKPYRVYCDMNTENGGWTVIQNRQDGSVDFGRKWDPYKQGFGNVATNTDGKNYCGLPGEYWLGNDKISQLTRMGPTELLIEMEDWKGDKVKAHYGGFTVQNEANKYQISVNKYRGTAGNALMDGASQLMGENRTMTIHNGMFFSTYDRDNDGWLTSDPRKQCSKEDGGGWWYNRCHAANPNGRYYWGGQYTWDMAKHGTDDGVVWMNWKGSWYSMRKMSMKIRPFFPQQ
chain 3: YVATRDNCCILDERFGSYCPTTCGIADFLSTYQTKVDKDLQSLEDILHQVENKTSEVKQLIKAIQLTYNPDESSKPNMIDAATLKSRKMLEEIMKYEASILTHDSSIRYLQEIYNSNNQKIVNLKEKVAQLEAQCQEPCKDTVQIHDITGKDCQDIANKGAKQSGLYFIKPLKANQQFLVYCEIDGSGNGWTVFQKRLDGSVDFKKNWIQYKEGFGHLSPTGTTEFWLGNEKIHLISTQSAIPYALRVELEDWNGRTSTADYAMFKVGPEADKYRLTYAYFAGGDAGDAFDGFDFGDDPSDKFFTSHNGMQFSTWDNDNDKFEGNCAEQDGSGWWMNKCHAGHLNGVYYQGGTYSKASTPNGYDNGIIWATWKTRWYSMKKTTMKIIPFNRLTIGEGQQHHLGGAKQAGDV
modifications: plasma-derived disulfide-linked hexamer (AαBβγ)2, N-glycosylated; Aα taken as the 610-residue circulating form (paper's Aα(1-610)), γ as the major γA form with the C-terminus printed in the text …
Kd [1]: 3.7 µM | Kd [2]: 21 µM
